Data from the supplement of paper PMC9112550, “Optimization of the antimicrobial peptide Bac7 by deep mutational scanning” (BMC Biology, 2022).

test system: Escherichia coli TOP10; assay: shrunken log2 fold change of peptide-encoding DNA abundance (4.5 h post-induction vs induction); higher = less antimicrobial activity (less host growth inhibition); conditions: time post-induction: 4.5 h; library: site-saturation at positions 5, 18, 19, 20
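Also: peptides expressed intracellularly from a pBAD plasmid library in pooled LB shake-flask culture, induced with 0.3% L-arabinose, DNA abundance read by NGS, three biological replicates, DESeq2 with apeglm shrinkage.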

Row | Sequence | shrunken log2 fold change
1 | RRIRERPPRLPRPRPRPIQWPRP | 0.0338
2 | RRIRNRPPRLPRPRPRPQEQPRP | 0.042
3 | RRIRKRPPRLPRPRPRPMRPPRP | 1.22
4 | RRIRERPPRLPRPRPRPGTKPRP | -0.0636
5 | RRIRTRPPRLPRPRPRPAWSPRP | 0.358
6 | RRIRKRPPRLPRPRPRPCCSPRP | -0.189
7 | RRIRFRPPRLPRPRPRPYPYPRP | -0.1
8 | RRIRSRPPRLPRPRPRPPFQPRP | 0.073
9 | RRIRIRPPRLPRPRPRPGFNPRP | -0.135
10 | RRIRTRPPRLPRPRPRPRVGPRP | 0.364
11 | RRIRCRPPRLPRPRPRPFASPRP | 0.0328
12 | RRIRARPPRLPRPRPRPSESPRP | 0.0591
13 | RRIRMRPPRLPRPRPRPDFRPRP | 0.146
14 | RRIRCRPPRLPRPRPRPWHPPRP | -0.0323
15 | RRIRPRPPRLPRPRPRPKYKPRP | -0.39
16 | RRIRPRPPRLPRPRPRPPVAPRP | 0.366
17 | RRIRARPPRLPRPRPRPVCKPRP | 0.195
18 | RRIRDRPPRLPRPRPRPVYDPRP | -0.434
19 | RRIRSRPPRLPRPRPRPERPPRP | 0.384
20 | RRIRVRPPRLPRPRPRPVPGPRP | 0.0985
21 | RRIRTRPPRLPRPRPRPWCDPRP | -0.596
22 | RRIRTRPPRLPRPRPRPMSKPRP | -0.0499
23 | RRIRMRPPRLPRPRPRPFVCPRP | 0.137
24 | RRIRLRPPRLPRPRPRPGWVPRP | 0.117
25 | RRIRRRPPRLPRPRPRPLMKPRP | -0.12

Row | Sequence | shrunken log2 fold change
26 | RRIRWRPPRLPRPRPRPTLPPRP | 0.128
27 | RRIRFRPPRLPRPRPRPFFWPRP | 0.118
28 | RRIRKRPPRLPRPRPRPDWDPRP | -0.193
29 | RRIRHRPPRLPRPRPRPRFRPRP | -0.105
30 | RRIRKRPPRLPRPRPRPRRWPRP | 0.717
31 | RRIRCRPPRLPRPRPRPGRDPRP | 0.18
32 | RRIRYRPPRLPRPRPRPVCNPRP | -0.649
33 | RRIRCRPPRLPRPRPRPNNWPRP | -0.362
34 | RRIRCRPPRLPRPRPRPHQHPRP | -0.302
35 | RRIRFRPPRLPRPRPRPVRNPRP | 0.077
36 | RRIRQRPPRLPRPRPRPQEEPRP | -0.0176
37 | RRIRLRPPRLPRPRPRPRQPPRP | 0.111
38 | RRIRTRPPRLPRPRPRPNGLPRP | -0.00146
39 | RRIRPRPPRLPRPRPRPIGQPRP | 0.121
40 | RRIRDRPPRLPRPRPRPAHIPRP | -0.0312
41 | RRIRGRPPRLPRPRPRPDDWPRP | 1.5
42 | RRIRTRPPRLPRPRPRPVGEPRP | -0.0292
43 | RRIRDRPPRLPRPRPRPWFQPRP | -0.0572
44 | RRIRLRPPRLPRPRPRPLWEPRP | 0.697
45 | RRIRGRPPRLPRPRPRPDYSPRP | -0.0453
46 | RRIRWRPPRLPRPRPRPGWHPRP | 0.298
47 | RRIRPRPPRLPRPRPRPVNGPRP | 0.0391
48 | RRIRCRPPRLPRPRPRPGYAPRP | 0.085
49 | RRIRHRPPRLPRPRPRPNAWPRP | 0.341
50 | RRIRIRPPRLPRPRPRPYIEPRP | -0.266

Row | Sequence | shrunken log2 fold change
51 | RRIRNRPPRLPRPRPRPAIMPRP | -0.0978
52 | RRIRTRPPRLPRPRPRPMYEPRP | -0.375
53 | RRIRGRPPRLPRPRPRPWRSPRP | 0.172
54 | RRIRDRPPRLPRPRPRPLAIPRP | 0.0447
55 | RRIRVRPPRLPRPRPRPWTRPRP | -0.0486
56 | RRIRQRPPRLPRPRPRPQREPRP | 0.00728
57 | RRIRIRPPRLPRPRPRPRGKPRP | 0.086
58 | RRIRKRPPRLPRPRPRPCIRPRP | -0.049
59 | RRIRKRPPRLPRPRPRPAFRPRP | 0.576
60 | RRIRMRPPRLPRPRPRPRYEPRP | -0.0771
61 | RRIRKRPPRLPRPRPRPFPMPRP | 0.0227
62 | RRIRKRPPRLPRPRPRPYPDPRP | -0.175
63 | RRIRTRPPRLPRPRPRPLMGPRP | 0.0521
64 | RRIRHRPPRLPRPRPRPKHRPRP | 0.376
65 | RRIRIRPPRLPRPRPRPDWGPRP | -0.0242
66 | RRIRCRPPRLPRPRPRPCSVPRP | -0.177
67 | RRIRGRPPRLPRPRPRPDSFPRP | 0.00128
68 | RRIRMRPPRLPRPRPRPHVKPRP | -0.282
69 | RRIRDRPPRLPRPRPRPWTFPRP | -0.22
70 | RRIRIRPPRLPRPRPRPPTKPRP | 0.126
71 | RRIRIRPPRLPRPRPRPETYPRP | -0.263
72 | RRIRLRPPRLPRPRPRPQYLPRP | -0.0559
73 | RRIRQRPPRLPRPRPRPRSRPRP | 0.0402
74 | RRIRRRPPRLPRPRPRPERAPRP | 0.79
75 | RRIRLRPPRLPRPRPRPKGLPRP | -0.0393
